# B1: KIF13A(1-411ΔP390)-mCit-Flag (domain or fragment)
# chain: MSDTKVKVAVRVRPMNRRELELNTKCVVEMEGNQTVLHPPPSNTKQGERKPPKVFAFDYCFWSMDESNTTKYAGQEVVFKCLGEGILEKAFQGYNACIFAYGQTGSGKSFSMMGHAEQLGLIPRLCCALFKRISLEQNESQTFKVEVSYMEIYNEKVRDLLDPKGSRQSLKVREHKVLGPYVDGLSQLAVTSFEDIESLMSEGNKSRTVAATNMNEESSRSHAVFNIIITQTLYDLQSGNSGEKVSKVSLVDLAGSERVSKTGAAGERLKEGSNINKSLTTLGLVISSLADQAAGKGKSKFVPYRDSVLTWLLKDNLGGNSQTSMIATISPAADNYEETLSTLRYADRAKRIVNHAVVNEDPNAKVIRELREEVEKLREQLSQAEAMKAELKEKLEESEKLIKELTVTWE
# B2: KIF13B(1-412ΔP391)-mCit-Flag (domain or fragment)
# chain: MGDSKVKVAVRIRPMNRRETDLHTKCVVDVDANKVILNPVNTNLSKGDARGQPKVFAYDHCFWSMDESVKEKYAGQDIVFKCLGENILQNAFDGYNACIFAYGQTGSGKSYTMMGTADQPGLIPRLCSGLFERTQKEENEEQSFKVEVSYMEIYNEKVRDLLDPKGSRQTLKVREHSVLGPYVDGLSKLAVTSYKDIESLMSEGNKSRTVAATNMNEESSRSHAVFKITLTHTLYDVKSGTSGEKVGKLSLVDLAGSERATKTGAAGDRLKEGSNINKSLTTLGLVISALADQSAGKNKNKFVPYRDSVLTWLLKDSLGGNSKTAMVATVSPAADNYDETLSTLRYADRAKHIVNHAVVNEDPNARIIRDLREEVEKLREQLTKAEAMKSELKDRLEESEKLIQEMTVTWE
# Legend:
# [1] = molecular target: microtubules polymerized from tubulin purified from goat brain, Taxol-stabilised (goat)
# [2] = molecular target: microtubules polymerized from tubulin purified from goat brain, Taxol-stabilised (goat); experiment: single-molecule motility assay (TIRF); Taxol-stabilised MTs adsorbed on the coverslip, purified fluorescent motors in the motility mix; P12 buffer pH 6.8, BSA, 2 mM ATP, room temperature; run time and detachment rate computed from run length and velocity
# [3] = molecular target: microtubules polymerized from tubulin purified from goat brain, Taxol-stabilised (goat); remark: listed apart in the source
Molecule,"Km for microtubules of the MT-stimulated ATPase (Michaelis-Menten fit; 10 nM motor, 1-80 µM MTs, BRB80, room temperature) [1]",detachment rate from the MT (koff) [2],mean run time (average time spent on the MT) [2],"microtubule affinity from the enzyme kinetics of the MT-stimulated ATPase, decrease compared to wild-type motors (times (decrease against wild type)) [3]"
KIF1A(1-393LZ)-mCit-Flag (from UniProt F1M4A4 1-393) (domain or fragment),7.03 µM,0.23 s⁻¹,4.38 s,–
KIF16B(1–400)-mCit-Flag (from UniProt Q96L93 1-400) (domain or fragment),2.43 µM,0.1 s⁻¹,9.83 s,–
KHC(1–560)-mCit-Flag (from UniProt P56536 1-560) (domain or fragment),10.2 µM,0.72 s⁻¹,1.39 s,–
"KIF1A R167C mutant motor, purified (domain or fragment)",–,–,–,1.5
B1,5.16 µM,0.15 s⁻¹,6.61 s,–
B2,4.23 µM,0.12 s⁻¹,8.06 s,–
